“Also recorded” adds a separate entry of the source. Where two headings read alike, the source gives them in different places.
Tests used:
Na,K-ATPase [1] = tested on: Na,K-ATPase; parameters: method as in 2 sources, one per row (each row's own in cited_ref): ref [10],[18] = [10]; PMID 30210292; doi:10.3389/fnmol.2018.00302; 10. Barykin E.P. Petrushanko I.Y. Kozin S.A. Telegin G.B. Chernov A.S. Lopina O.D. Radko S.P. Mitkevich V.A. Makarov A.A. Phosphorylation of the Amyloid-Beta Peptide Inhibits Zinc-Dependent Aggregatio || [18]; PMID 27296892; doi:10.1038/srep27738; 18. Petrushanko I.Y. Mitkevich V.A. Anashkina A.A. Adzhubei A.A. Burnysheva K.M. Lakunina V.A. Kamanina Y.V. Dergousova E.A. Lopina O.D. Ogunshola O.O. Direct Interaction of Beta-Amyloid with Na,K-ATP ||| ref [39] = [39]; PMID 26297827; doi:10.1016/j.febslet.2015.08.011; 39. Klimanova E.A. Petrushanko I.Y. Mitkevich V.A. Anashkina A.A. Orlov S.N. Makarov A.A. Lopina O.D. Binding of Ouabain and Marinobufagenin Leads to Different Structural Changes in Na,K-ATPase and De; details: ref [39]; cited from earlier work
duck Na,K-ATPase [2] = biological target: T1, duck Na,K-ATPase (Anas platyrhynchos, UniProt Q7ZYV1); format: binding; details: 25 °C, pH 7.5, unit not given
Description: (§1) Purified preparation of Na,K-ATPase was obtained from duck salt glands as described elsewhere.
(§2) Experiments were carried out at 25 °C in four buffers, as described elsewhere: (E2P buffer) 10 mM imidazole, 3 mMTris/Pi, 1 mM EDTA, 3 mM MgCl2, 0.1 mM DTT, pH 7.5; (E1/E2 buffer) 10 mM imidazole, 130 mM NaCl, 20 mM KCl, 3 mM MgCl2, 0.1 mM DTT, pH 7.5; (E1 buffer) 10 mM imidazole, 1 mM EDTA, 3 mM NaCl, 0.1 mM DTT, pH 7.5; (E2 buffer) 10 mM imidazole, 1 mM EDTA, 3 mM KCl, and 0.1 mM DTT, pH 7,5. […] Aliquots (2.6 μL) of ligands were injected into a 0.24 mL cell containing the protein solution to achieve a complete binding isotherm. […] Equivalent amounts of DMSO was added to protein solutions to avoid thermal effects of dissolution.
(§3) The effective heat of binding was obtained by subtracting the heat of dilution from the heat of reaction. MicroCal Origin software was used to fit isothermal titration curves. […] The Gibbs energy and enthalpy changes […] were estimated according to the equations: ∆G = −RT lnKa and ∆G = ∆H − T∆S.

[3] = hexafluoroisopropanol, dried, DMSO for 1 h, diluted in buffer; ref [18]; cited from earlier work
Description: Aβ42 peptide was synthesized by Biopeptide. […] Briefly, the peptide was dissolved in hexafluoroisopropanol (Fluka), dried, and stored at −80 °C. Before the experiment, the peptide was dissolved in DMSO for 1 h and then diluted in the buffer solution.

duck Na,K-ATPase [4] = biological target: T1, duck Na,K-ATPase; assay: Isothermal titration calorimetry (MicroCal iTC200), Aβ42 binding to Na,K-ATPase in different states; details: 25 °C; for T∆S, entropy variation: calculated from ∆G = ∆H − T∆S; for ∆H, enthalpy variation: three to four measurements, SD did not exceed ±10%
Description: Briefly, the peptide was dissolved in hexafluoroisopropanol (Fluka), dried, and stored at −80 °C. Before the experiment, the peptide was dissolved in DMSO for 1 h and then diluted in the buffer solution.
as §1, §2, §3

[5] = tested on: neuroblastoma cells SH-SY5Y; details: ref [18]; cited from earlier work
From the text: (§4) Here we study the binding interface of Aβ with Na,K-ATPase. Na,K-ATPase creates a sodium/potassium gradient, and inhibition of pump activity by Aβ leads to impairment of electrotonic properties of neurons.

Na,K-ATPase [6] = details: ref [18]; cited from earlier work
From the text: as §4

[7] = Na,K-ATPase in complex with Aβ42
[8] = enzyme in E2P conformation (without Aβ42)
[9] = OBN state (26 µM ouabain), pH 7.5

C[C@@H]1O[C@@H](O[C@H]2C[C@@H](O)[C@]3(CO)[C@H]4[C@H](O)C[C@]5(C)[C@@H](C6=CC(=O)OC6)CC[C@]5(O)[C@@H]4CC[C@]3(O)C2)[C@H](O)[C@H](O)[C@H]1O [ouabain]
Na,K-ATPase conformation bound (Na,K-ATPase [1]): binds predominantly to the E2P conformation
T∆S (duck Na,K-ATPase [2]; [7]): −10.8
∆H (duck Na,K-ATPase [2]; [7]): −20.2 ± 0.7
T∆S (duck Na,K-ATPase [2]; [8]): −4.2
∆H (duck Na,K-ATPase [2]; [8]): −13.7 ± 0.2

Aβ42: Aβ42 peptide was synthesized by Biopeptide
form present in the solution [3]: mainly in the monomeric form
T∆S, entropy variation (duck Na,K-ATPase [4]; E1/E2 state, pH 7.5): 5.48 kcal/mol
∆H, enthalpy variation (duck Na,K-ATPase [4]; E1/E2 state, pH 7.5): -2.54 kcal/mol
T∆S, entropy variation (duck Na,K-ATPase [4]; E1 state, pH 7.5): 6.02 kcal/mol
∆H, enthalpy variation (duck Na,K-ATPase [4]; E1 state, pH 7.5): -1.54 kcal/mol
T∆S, entropy variation (duck Na,K-ATPase [4]; E2P state, pH 7.5): 6.19 kcal/mol
∆H, enthalpy variation (duck Na,K-ATPase [4]; E2P state, pH 7.5): -1.59 kcal/mol
Ka, affinity constant (duck Na,K-ATPase [4]; E2 state, 10 mM imidazole, 1 mM EDTA, 3 mM KCl, 0.1 mM DTT, pH 7.5, measured three to four times, SD did not exceed ±20%): 490000 M⁻¹
T∆S, entropy variation (duck Na,K-ATPase [4]; E2 state, pH 7.5): 5.55 kcal/mol
∆H, enthalpy variation (duck Na,K-ATPase [4]; E2 state, pH 7.5): -2.21 kcal/mol
T∆S, entropy variation (duck Na,K-ATPase [4]; [9]): 6.87 kcal/mol
∆H, enthalpy variation (duck Na,K-ATPase [4]; [9]): -1.21 kcal/mol
Aβ42 binding to Na,K-ATPase in complex with ouabain compared with free enzyme (duck Na,K-ATPase [4]; OBN state, sequential titration with ouabain then Aβ42 in E2P buffer): in the same way as the free enzyme; also recorded: did not change
effect of exogenous Aβ42 on enzyme transport and hydrolytic activity [5]: pronounced decrease in enzyme transport and hydrolytic activity
effect of complex formation on enzyme hydrolytic activity (Na,K-ATPase [6]): dose-dependent inhibition of enzyme hydrolytic activity

Reference: PMC9313104 (Biomedicines, 2022)
